Columns and labels:
Details in all cases: both partners purified
[1] = molecular target: T1, 6×His-3×Flag-PDS5B, Cy5-labelled (UniProt Q9NTI5 1-1447, Cy5 label); assay: MST; competitive: 34 nM Cy5-PDS5B and Wapl dilutions combined 10 min at RT, then 17 nM Sororin added; 25 °C, 50 mM Tris pH 7.4, 150 mM NaCl, 10% glycerol, 0.05% Tween-20
T1 construct: PDS5B, cDNA in pFastBac1; primers run from the start codon to the stop codon; also called His-Flag-PDS5B; Cy5-labeled PDS5B; source: SF9 cells (baculovirus), purified (Ni2+ Sepharose); not shown: His6, N-terminal, kept; 3×Flag, N-terminal, kept
T1 sequence (looked up): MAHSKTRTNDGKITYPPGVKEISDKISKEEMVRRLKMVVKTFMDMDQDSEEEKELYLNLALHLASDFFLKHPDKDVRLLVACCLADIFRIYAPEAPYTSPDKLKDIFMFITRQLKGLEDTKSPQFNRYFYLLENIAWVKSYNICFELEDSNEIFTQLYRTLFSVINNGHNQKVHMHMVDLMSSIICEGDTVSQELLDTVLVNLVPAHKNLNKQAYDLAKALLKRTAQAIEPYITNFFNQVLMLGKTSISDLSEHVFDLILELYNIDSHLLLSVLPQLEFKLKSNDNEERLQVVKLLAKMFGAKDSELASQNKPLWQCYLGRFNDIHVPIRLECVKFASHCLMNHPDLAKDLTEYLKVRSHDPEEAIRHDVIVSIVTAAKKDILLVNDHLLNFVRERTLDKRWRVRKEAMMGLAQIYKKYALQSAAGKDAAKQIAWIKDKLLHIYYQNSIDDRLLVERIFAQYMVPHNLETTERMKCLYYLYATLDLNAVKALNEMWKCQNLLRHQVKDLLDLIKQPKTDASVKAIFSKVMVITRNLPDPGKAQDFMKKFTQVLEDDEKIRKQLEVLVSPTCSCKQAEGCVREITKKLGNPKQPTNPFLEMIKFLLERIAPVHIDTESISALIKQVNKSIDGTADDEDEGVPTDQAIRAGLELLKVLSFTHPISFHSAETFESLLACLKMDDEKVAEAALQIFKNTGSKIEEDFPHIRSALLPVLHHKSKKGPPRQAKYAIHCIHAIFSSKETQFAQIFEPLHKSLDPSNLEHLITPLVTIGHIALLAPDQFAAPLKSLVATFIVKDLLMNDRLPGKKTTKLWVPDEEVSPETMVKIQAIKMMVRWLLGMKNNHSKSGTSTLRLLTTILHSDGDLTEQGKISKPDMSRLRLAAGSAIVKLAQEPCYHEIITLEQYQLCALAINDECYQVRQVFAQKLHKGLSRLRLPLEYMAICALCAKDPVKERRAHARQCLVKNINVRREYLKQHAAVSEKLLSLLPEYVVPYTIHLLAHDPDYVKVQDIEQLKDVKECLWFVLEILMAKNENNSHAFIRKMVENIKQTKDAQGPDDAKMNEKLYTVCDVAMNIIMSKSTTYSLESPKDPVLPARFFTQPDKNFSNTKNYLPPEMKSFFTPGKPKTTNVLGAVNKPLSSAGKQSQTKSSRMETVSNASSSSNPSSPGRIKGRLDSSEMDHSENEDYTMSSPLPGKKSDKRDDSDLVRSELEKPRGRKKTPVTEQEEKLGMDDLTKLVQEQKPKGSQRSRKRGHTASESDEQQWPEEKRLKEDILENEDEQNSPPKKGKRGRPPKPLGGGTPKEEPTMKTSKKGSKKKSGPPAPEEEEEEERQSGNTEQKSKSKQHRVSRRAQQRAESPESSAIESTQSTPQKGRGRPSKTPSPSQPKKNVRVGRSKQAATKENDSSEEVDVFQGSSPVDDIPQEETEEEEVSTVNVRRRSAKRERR

[2] = molecular target: T1, 6×His-3×Flag-PDS5B, Cy5-labelled; assay: MST; competitive: 34 nM Cy5-PDS5B and Wapl dilutions combined 10 min at RT, then Sororin and RSMC added (17 nM each, 1:1 molar ratio); 25 °C, 50 mM Tris pH 7.4, 150 mM NaCl, 10% glycerol, 0.05% Tween-20
[3] = molecular target: T1, 6×His-3×Flag-PDS5B, Cy5-labelled; assay: MST; Cy5-labelled PDS5B at 34 nM, partner in twofold dilutions; 25 °C, 50 mM Tris pH 7.4, 150 mM NaCl, 10% glycerol, 0.05% Tween-20; Monolith NT.115

B1: Wapl (natural protein, UniProt Q7Z5K2 1-1190, looked up)
chain: MTSRFGKTYSRKGGNGSSKFDEVFSNKRTTLSTKWGETTFMAKLGQKRPNFKPDIQEIPKKPKVEEESTGDPFGFDSDDESLPVSSKNLAQVKCSSYSESSEAAQLEEVTSVLEANSKISHVVVEDTVVSDKCFPLEDTLLGKEKSTNRIVEDDASISSCNKLITSDKVENFHEEHEKNSHHIHKNADDSTKKPNAETTVASEIKETNDTWNSQFGKRPESPSEISPIKGSVRTGLFEWDNDFEDIRSEDCILSLDSDPLLEMKDDDFKNRLENLNEAIEEDIVQSVLRPTNCRTYCRANKTKSSQGASNFDKLMDGTSQALAKANSESSKDGLNQAKKGGVSCGTSFRGTVGRTRDYTVLHPSCLSVCNVTIQDTMERSMDEFTASTPADLGEAGRLRKKADIATSKTTTRFRPSNTKSKKDVKLEFFGFEDHETGGDEGGSGSSNYKIKYFGFDDLSESEDDEDDDCQVERKTSKKRTKTAPSPSLQPPPESNDNSQDSQSGTNNAENLDFTEDLPGVPESVKKPINKQGDKSKENTRKIFSGPKRSPTKAVYNARHWNHPDSEELPGPPVVKPQSVTVRLSSKEPNQKDDGVFKAPAPPSKVIKTVTIPTQPYQDIVTALKCRREDKELYTVVQHVKHFNDVVEFGENQEFTDDIEYLLSGLKSTQPLNTRCLSVISLATKCAMPSFRMHLRAHGMVAMVFKTLDDSQHHQNLSLCTAALMYILSRDRLNMDLDRASLDLMIRLLELEQDASSAKLLNEKDMNKIKEKIRRLCETVHNKHLDLENITTGHLAMETLLSLTSKRAGDWFKEELRLLGGLDHIVDKVKECVDHLSRDEDEEKLVASLWGAERCLRVLESVTVHNPENQSYLIAYKDSQLIVSSAKALQHCEELIQQYNRAEDSICLADSKPLPHQNVTNHVGKAVEDCMRAIIGVLLNLTNDNEWGSTKTGEQDGLIGTALNCVLQVPKYLPQEQRFDIRVLGLGLLINLVEYSARNRHCLVNMETSCSFDSSICSGEGDDSLRIGGQVHAVQALVQLFLERERAAQLAESKTDELIKDAPTTQHDKSGEWQETSGEIQWVSTEKTDGTEEKHKKEEEDEELDLNKALQHAGKHMEDCIVASYTALLLGCLCQESPINVTTVREYLPEGDFSIMTEMLKKFLSFMNLTCAVGTTGQKSISRVIEYLEHC
notes: Wapl, cohesin-releasing factor; primers run from the start codon to the stop codon
- Kd of Wapl-PDS5B with Sororin added [1]: 25.3 µM
- Kd of Wapl-PDS5B with Sororin and RSMC added (1:1) [2]: 50.1 µM
- Kd [3]: ~4.7 µM

Reference: paper PMC12759081, “S-phase PARylation of microprotein RSMC enhances the function of Sororin in sister chromatid cohesion” (The EMBO Journal, 2025)
